# Measurements: the supplement of paper PMC7877785
# ± gives the uncertainty stated by the source.
# Assay: self-splicing fitness, log relative to wild type (ln ratio); higher = more splicing; Tetrahymena group I intron in knt gene, E. coli kanamycin selection, DiMSum; sequences stand for … in CUCUCU…GGAGGGAAAAGUUAUCAGGCAUGCACCUGGUAGCUAGUCUUUAAACCAAUAGAUUGCAUCGGUUUAAAAGGCAAGACCGUCAAAUUGCGGGAAAGGGGUCAACAGCCGUUCAGUACCAAGUCUCAGGGGAAACUUUGAGAUGGCCUUGCAAAGGGUAUGGUAAUAAGCUGACGGACAUGGUCCUAACCACGCAGCCAAGUCCUAAGUCAACAGAUCUUCUGUUGAUAUGGAUGCAGUUCACAGACUAAAUGUCGGUCGGGGAAGAUGUAUUCUUCUCAUAAGAUAUAGUCGGACCUCUCCUUAAUGGGAGCUAGCGGAUGAAGUGAUGCAACACUGGAGCCGCUGGGAACUAAUUUGUAUGCGAAAGUAUAUUGAUUAGUUUUGGAGUACUCGUGGUCG
# In short: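 Six replicate transformations of E. coli BL21(DE3) with a pET-22b(+) library were grown overnight at 37°C or 30°C. The library randomised all eight P1ex-region intron nucleotides, the intron lying in the knt kanamycin-resistance gene, and plates were LB agar with or without 25 μg/mL kanamycin plus 100 μg/mL carbenicillin, 50 μM IPTG and 0.2% rhamnose. Pooled colonies were amplicon-sequenced on an Illumina HiSeq 2500, and fitness is the DiMSum error-weighted combination of wild-type-normalised replicate fold changes, kanamycin versus none.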
Sequence,self-splicing fitness (ln) (30 °C),self-splicing fitness (ln) (37 °C)
UAUUAGCAAUAUUACGAAUG,-0.433 ± 0.082,-0.322 ± 0.11
ACAGAGCAAUAUUACGAAGG,-3.82 ± 0.23,-3.32 ± 0.33
GGCCAGCAAUAUUACGUAAA,-1.26 ± 0.11,-0.35 ± 0.14
UCAUAGCAAUAUUACGACCU,-2.73 ± 0.39,-0.81 ± 0.26
UCAAAGCAAUAUUACGUUUA,-2.71 ± 0.16,-2.51 ± 0.18
CAUCAGCAAUAUUACGUCGA,-3 ± 0.21,-2.66 ± 0.24
UACCAGCAAUAUUACGGUAU,-3.15 ± 0.16,-2.35 ± 0.18
ACAAAGCAAUAUUACGAGUU,-3.3 ± 0.099,-1.68 ± 0.096
ACCGAGCAAUAUUACGUCCG,-4.36 ± 0.24,-1.5 ± 0.14
UCGAAGCAAUAUUACGGGCA,-0.603 ± 0.094,-0.507 ± 0.1
UGUGAGCAAUAUUACGGAUA,-1.65 ± 0.35,-1.64 ± 0.34
AGAAAGCAAUAUUACGCACU,-0.82 ± 0.15,-1.17 ± 0.18
GAGAAGCAAUAUUACGUUAA,-2.68 ± 0.2,-2.18 ± 0.24
UCAAAGCAAUAUUACGCUAG,-1.25 ± 0.076,-1.29 ± 0.1
GACGAGCAAUAUUACGUGAC,-2.77 ± 0.31,-1.48 ± 0.26
UAAAAGCAAUAUUACGGCUG,0.0596 ± 0.093,0.0696 ± 0.12
AUAAAGCAAUAUUACGAGUA,-1.12 ± 0.086,-0.205 ± 0.12
CGCCAGCAAUAUUACGUAGU,-2.67 ± 0.1,-1.18 ± 0.11
UUGUAGCAAUAUUACGAAUC,-3.06 ± 0.14,-2.76 ± 0.24
AUACAGCAAUAUUACGUCCC,-0.874 ± 0.14,-0.261 ± 0.18
CUGCAGCAAUAUUACGCGAU,-1.12 ± 0.09,-0.167 ± 0.12
GGGCAGCAAUAUUACGAGAG,-4.06 ± 0.17,-2.82 ± 0.16
AGUUAGCAAUAUUACGCGUA,-1.77 ± 0.22,-0.709 ± 0.15
AAAUAGCAAUAUUACGACGC,-0.825 ± 0.062,0.13 ± 0.085
CAGUAGCAAUAUUACGGCUA,-1.11 ± 0.15,-1.21 ± 0.16
UUGGAGCAAUAUUACGACCU,-2.97 ± 0.32,-0.7 ± 0.38

Sequence,self-splicing fitness (ln) (30 °C),self-splicing fitness (ln) (37 °C)
GGUGAGCAAUAUUACGUGUU,,-1.87 ± 0.27
UUUGAGCAAUAUUACGAUAA,-1.25 ± 0.087,-0.386 ± 0.095
UGCUAGCAAUAUUACGAUGC,-4.2 ± 0.34,
AGACAGCAAUAUUACGUAGA,-2.6 ± 0.081,-2.5 ± 0.11
UCACAGCAAUAUUACGGUAG,-1.18 ± 0.085,-0.311 ± 0.1
GUCCAGCAAUAUUACGGCAG,,-2.06 ± 0.2
CUAAAGCAAUAUUACGAAUG,0.281 ± 0.067,0.497 ± 0.088
UAGGAGCAAUAUUACGUAAG,-3.22 ± 0.16,-2.01 ± 0.16
GGUAAGCAAUAUUACGGUAG,-3.72 ± 0.19,-3.15 ± 0.23
CGAGAGCAAUAUUACGAGUC,-3.99 ± 0.4,-3.75 ± 0.34
AAUUAGCAAUAUUACGGUGA,-1.7 ± 0.084,-0.534 ± 0.099
GCUGAGCAAUAUUACGCAGG,-1.66 ± 0.13,-1.56 ± 0.15
UUACAGCAAUAUUACGCCUA,0.181 ± 0.11,0.542 ± 0.12
AAGCAGCAAUAUUACGGGAC,-4.44 ± 0.46,-3.38 ± 0.39
ACCCAGCAAUAUUACGCUCA,-0.397 ± 0.065,-0.324 ± 0.087
CUUGAGCAAUAUUACGAUUG,-2.49 ± 0.13,-1.32 ± 0.14
CCGCAGCAAUAUUACGGUGU,-3.97 ± 0.16,-1.89 ± 0.14
CAUAAGCAAUAUUACGGACA,-3.09 ± 0.25,-2.11 ± 0.19
AUCGAGCAAUAUUACGUGUU,-2.9 ± 0.22,-2.42 ± 0.29
UCGCAGCAAUAUUACGUGCG,-4.06 ± 0.22,-3.23 ± 0.3
CCUAAGCAAUAUUACGGACG,-1.15 ± 0.059,-0.303 ± 0.08
CCUUAGCAAUAUUACGCUAG,-3.32 ± 0.29,-2.04 ± 0.38
CAGCAGCAAUAUUACGCACA,-0.847 ± 0.088,-0.607 ± 0.093
UGUCAGCAAUAUUACGGUUU,-1.01 ± 0.061,-0.547 ± 0.086
UUCAAGCAAUAUUACGCACG,-1.11 ± 0.11,-0.411 ± 0.14
GUUCAGCAAUAUUACGAGAA,-1.81 ± 0.49,-2.14 ± 0.31

Sequence,self-splicing fitness (ln) (30 °C),self-splicing fitness (ln) (37 °C)
AGACAGCAAUAUUACGGCCG,-1.26 ± 0.078,-0.403 ± 0.12
UAACAGCAAUAUUACGUGAA,-1.61 ± 0.065,-0.749 ± 0.083
GGCGAGCAAUAUUACGGGAC,-2.22 ± 0.2,-1.1 ± 0.27
UAUUAGCAAUAUUACGUUGC,-3.57 ± 0.31,-2.59 ± 0.25
AUAUAGCAAUAUUACGGUAA,-1.94 ± 0.15,-0.869 ± 0.13
UGGUAGCAAUAUUACGUAGG,-1.25 ± 0.14,-1.35 ± 0.25
CUACAGCAAUAUUACGCCCA,-2.99 ± 0.27,-1.85 ± 0.23
UUCCAGCAAUAUUACGGUAG,-0.0875 ± 0.065,0.438 ± 0.079
AAUAAGCAAUAUUACGCCAG,-1.88 ± 0.18,-0.98 ± 0.25
GCGUAGCAAUAUUACGUGGA,-3.68 ± 0.48,-2.23 ± 0.38
CUCAAGCAAUAUUACGCCCA,-3.18 ± 0.4,-2.01 ± 0.47
CGGAAGCAAUAUUACGAAUC,-3.29 ± 0.3,-2.46 ± 0.29
UAGUAGCAAUAUUACGCGCU,-1.46 ± 0.16,-0.161 ± 0.16
GGCCAGCAAUAUUACGAUAA,-3.64 ± 0.4,-1.09 ± 0.15
AACAAGCAAUAUUACGACGU,0.394 ± 0.063,0.441 ± 0.07
CUGGAGCAAUAUUACGUUUG,-2.66 ± 0.17,-1.21 ± 0.17
GACAAGCAAUAUUACGCUGC,-3.6 ± 0.16,-2.87 ± 0.19
UCCGAGCAAUAUUACGGCCU,-3.24 ± 0.3,-2.33 ± 0.38
AUGCAGCAAUAUUACGGGUU,-1.98 ± 0.075,-1.29 ± 0.096
UAGUAGCAAUAUUACGGGCU,-1.39 ± 0.2,-2.47 ± 0.27
GAUUAGCAAUAUUACGUCUA,-1.14 ± 0.095,-0.229 ± 0.085
UAUAAGCAAUAUUACGAGAU,-4.28 ± 0.31,-2.54 ± 0.28
CAAAAGCAAUAUUACGAUGG,-0.431 ± 0.062,-0.139 ± 0.079
AUUCAGCAAUAUUACGUACA,-0.718 ± 0.095,0.309 ± 0.11
AUAUAGCAAUAUUACGCUCA,-0.563 ± 0.18,0.319 ± 0.22
